Reference: the supplement of paper PMC9170038

System: K4 kissing-loop RNA reporter
Assay: apparent KD of K4 kissing-loop reporter; higher = weaker reporter binding
Conditions: Eterna round: R107
Method: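 RNA-MaP round R107: designed RNA switches with theophylline, tryptophan, arginine or FMN aptamers are transcribed on-chip within common flanks. They are titrated with a labelled K4 kissing-loop RNA reporter in RNA-MaP buffer (100 mM Tris pH 7.5, 80 mM KCl, 4 mM MgCl2), without ligand or with the indicated ligand. Median apparent KD per design.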

[1] = input ligand: theophylline 20 uM
[2] = input ligand: tryptophan 2.4 mM
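Also: bound reporter read as fluorescence of individual clusters on recovered sequencing chips by microscopy, with normalized cluster intensities fitted with a binding model.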

Row | Sequence | apparent KD of K4 kissing-loop reporter (input ligand: FMN 200 uM) [nM] | apparent KD of K4 kissing-loop reporter (input ligand: arginine 13.2 mM) [nM] | apparent KD of K4 kissing-loop reporter (input ligand: none) [nM] | apparent KD of K4 kissing-loop reporter [1] [nM] | apparent KD of K4 kissing-loop reporter [2] [nM]
1 | ACCGGACAAGAGGUGUCAGUGAUGUUGGCGCGAGGACCGGUACGGCCGCCACUCGAGGAAAGCGGUCACGCCCUGGUAGGACUGG [theeternabot_exclusion_KL_Trp_A_22] | 169 | 106 | 144 | 128 | 251
2 | UGAUAGGACAGAAGGAGCGGGAGUGAUGUUCCCAAAAGAAUAAGGUGUCAAAAGACACCCUUCCAGGUAGGUCGCUGUCCUAUCU | 82.2 | 131 | 106 | 119 | 87.4
3 | UUAGAUCAAAGAUCAGUCUUAUCAAGAGCACGAGGACCGGUACGGCCGCCACUCGAGUGAUGUUCGAGAGCUCUUGUGACAAAUU [AK2 EXC Tryptophan A] | 148 | 129 | 157 | 154 | 219
4 | UUUAUAAAGUCGGCCGCCACUGGAUUUAUAUUUGUUUCGUCUGGAUCAAAGUGAUGUUUUGAGUCCAGGACCGGGACAUUUGUUA [whbob_Ex_Tryp_B_w37] | 80.7 | 71.1 | 74.6 | 69.1 | 93.2
5 | GAUAAUAGAAUAGAUACCAGUCAAGACCUAGUGAUGUUAGGGAGAUAAGUAGAAUGAAUUGGCCCUUGGCAGCUAUAAUAGUAGG [Default title] | 92.4 | 106 | 80.5 | 129 | 73.4
6 | UGCAGUGAUGUUGCUAUUUUUCUUGAUUAACGAGGACCGGUACGGCCGCCACUCGAUUUCUCUCUAAUCCAGUAUGUUGUUUAAU [whbob_EX_Tryp_A_t4] | 114 | 137 | 114 | 143 | 86.1
7 | UGUGUUGUUUUGAUGUUUGGUGUUGCAUGGCAGGAUAUCGUAGAGGCGAGAAGGGCUUUUGUGCGGUAUGAGUGAUGUUUGUAGG [iihymullin] | 509 | 372 | 509 | 466 | 398
8 | GCCGUAGAUUGAAGGAGCGAGGCUAAUUAAAGACCGAGUGAUGUUCGGGAGCGUGAAACUCCUCAGGUAGGUCGCAAUCUACGGC | 217 | 180 | 204 | 186 | 180
9 | AAAUUUAAUAUAUUUAAUUAAUUAUGUGAUACCAGACAUUUAUAAGUCCCUUGGCAGCACAAUGCAGUGAUGUUGCAUAUAAUAA [JR_SSTheophyA_Sub012] | 64.3 | 103 | 82.1 | 77.5 | 67.5
10 | AAUGCAUUGUGAAGGAGCGCGAUAGGCAGUGAUGUUGCUUACAUUUUAUUAUGUUUUAAAACGCAGGUAGGUCGCACUUUGCAUA [JR_Nu_SSArginiB_Sub030] | 187 | 163 | 183 | 193 | 162
11 | AAGUGUCAUUAGACACACUGAUGUAUAAACUAGGAUAUGCUGAUAAGCAGAAGGAGUGAUGUUCCUUUCAUCAUCAGAAUUAAAU [KL-XFMN-A2] | 167 | 113 | 110 | 127 | 94.5
12 | UAAAUAAUAAAACGAGUGAUGUUCGACGAUACCAGCCUCGAUAGAGGCCCUUGGCAGCGUAUGUGAUCACUAAGCCAAGGAAUAA [#02 K4 Theophylline A Exclusion] | 164 | 175 | 167 | 196 | 132
13 | AAAAUAAACCAGUGAUGUUGGUGUCUGGAUACCAGCGACGAAAGUCGCCCUUGGCAGCUAUGGACGUACAAAAUAAGUACGUCCU [MatMod 7 - Jieux - Same State - Theophylline A] | 704 | 485 | 622 | 637 | 510
14 | CCUUCUCUUGAUAGUGAUGUUAUCAAGGGCAAGGAUAUCAUUUUAAUGAGAAGGUGUCCUUGAUAACAUGGAGGUCUGAAACAGA [Omei KL FMN A Exc C v6] | 151 | 86.6 | 114 | 169 | 95.5
15 | UUGUUUGGUUGAGAGGUUGGGCGAGAUGAUACCAGUAGAGAAGAAUACCCUUGGCAGCAUAAGAAAGAUAUAGUGAUGUUGUAUA [SSTheophA.O] | 538 | 356 | 490 | 529 | 475
16 | GCUACUGCUGAAGGAUAUAUCAAUAGAGUGAUGUUCUAUGUCGGUAGCCCGAAAGGGCUACCGACGGUAGAAGGUCAGCAGUAGC | 182 | 1090 | 1560 | 1120 | 960
17 | AGACUACCACACUGUCAAUAGACAGUGAACUAGGAUAUGCUGAUAAGCAGAAGGAGUGAUGUUCCUAAUAAAAGGUAGUCAUAAU [FmnAX 16 #SwitchBubble #StaticStem #K4Early] | 426 | 431 | 415 | 587 | 360
18 | GUAGCACUCGAUAGUGAUGUUAUCGAGGGCAAGGAUAUCACCUCAGUGAGAAGGUGUCCUUGAUAACUGCUACGGGAAUAUCCCA [Omei KL FMN A Exc D v8] | 270 | 90.9 | 101 | 106 | 99.6
19 | AGUCGCAGUGAUGUUGCGAUUCCGUUGAGGGAGGAUAUUGGUAAUACAAGAAGGCCCGGCUGCGGGUGAUGUUCGCAAUAGGGCC [Exclusion FMN A GF19] | 138 | 108 | 117 | 112 | 105
20 | GCGCGUCAUGUCAGCGGUGACACUGUCGAUACCAGCGCCGAAAGGCGCCCUUGGCAGCGACGUGCUGGAGUGAUGUUCCAGCGUC [#2 Exclusion - Theophylline A Attempt #24 (HarryS)] | 163 | 108 | 148 | 148 | 139
21 | AAGUGUGUGGCGGCCGCCACUAGUAUCCAGUGAUGUUGGAGAUAUCACGUAAGUGAUAUCCUACAUAGGACCGGGCCAUAUAGAA [Same State - Tryptophan B (Freestyle 20)] | 392 | 391 | 337 | 540 | 510
